Source: the supplement of paper PMC9170038

What follows are sequences tested on K4 kissing-loop RNA reporter (assay: apparent KD of K4 kissing-loop reporter; higher = weaker reporter binding). Conditions: Eterna round: R107; input ligand: arginine 13.2 mM.
Procedure: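 RNA-MaP round R107: designed RNA switches with theophylline, tryptophan, arginine or FMN aptamers are transcribed on-chip within common flanks. They are titrated with a labelled K4 kissing-loop RNA reporter in RNA-MaP buffer (100 mM Tris pH 7.5, 80 mM KCl, 4 mM MgCl2), without ligand or with the indicated ligand. Median apparent KD per design.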
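Also: bound reporter read as fluorescence of individual clusters on recovered sequencing chips by microscopy, with normalized cluster intensities fitted with a binding model.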

In order of falling “apparent KD of K4 kissing-loop reporter” value:
1. CCAUCGCUAUUCGAUACCAGCUCCUUAGUGAUGUUAAGGUUUUACCCUCUGUAGGAGGGAAGCCCUUGGCAGCGAGUAGUGAUGG [#03 K4 Theophylline B Same State]  802 nM
2. ACAGGAUCGAAGAUCCUGAGCAGUCAAAACCGAGGACCGGUACGGCCGCCACUCGGAGUGAUGUUCCGAAGACUGCAAAAUAAAA [#SwitchBubble 3]  760 nM
3. CAUCUGGACCAAGGAUAUGUGGGCAUAAUAAAAUUACCACCUUAUUUGCAGUAAGUGAUGUUUAACACAGAAGGUGGACAUAGAC [theeternabot_exclusion_KL_FMN_B_10]  725 nM
4. AAAUAGAUCAGUCAACCAGUGAUGUUGGAAGGAGCGUGCGAAAGCACAGGUAGGUCGCCAUAAUAAAAUUGGCUGAUCAAAAUAA  615 nM
5. ACUGAGUUGACGAAAGUCAACAAUUGAGAAGGAGCGCACGAAAGUGCAGGUAGGUCGCUCAGUCCAGUGAUGUUGGAUCAUCAGA [#17 K4 Arginine A Same State]  558 nM
6. UCCUGCAAUCCACCACGAAAGUGGAUGGAUACCAGAGUCGAAAGACUCCCUUGGCAGCCAGUGAUGUUGGAGCAGGUAAAAUAAA  532 nM
7. AAAUAAAGCAGUCACCCAGUGAUGUUGGAAGGAGCGUGCGAAAGCACAGGUAGGUCGCCAAAAUAAAGUGGCUGCGGCAAAGCCA [#SwitchBubble 25 #K4Early]  428 nM
8. AGAGAUAAGGCGGCCGCCACUAAGAUGAAACUAACGGUCAAGUGAUGUUUGCGGUUACAGUUCAGUAGGACCGGGCCGAGUAAAU [theeternabot_sameState_KL_Trp_B_47]  403 nM
9. CAGCCCAAAUGGCGAGAAGUGUUCCUUAGUCGAGGACCGGUACGGCCGCCACUCGCUCUAAACAUUAGGAGUGAUGUUCCAUUAG  258 nM
10. UAUAUAGUGAUGUUAUAUGGGAAGGAGUUACGAGGACCGGUACGGCCGCCACUCGAAACGAGUGAGGAUUUGGGAGAUUGGGUUU [SSTryptA.S]  211 nM
11. AACUCUCAGACACUUGAGUGAUGUUCAGGCCGAGGACCGGUACGGCCGCCACUCGGGUCUGAGAGAGGUUAUCAAAGAUAGCCAA [Omei KL Tryp A SS A v5]  194 nM
12. GAGAUGCACCAGUCUUAACGUGACUUAUCCCGAGGACCGGUACGGCCGCCACUCGCGUACUACUAGUGAUGUUGGUCAGUAUGAG [theeternabot_sameState_KL_Trp_A_26]  185 nM
13. ACGCAUGGGCAAGGAUAUGGUAGUGAUGUUACCUUUGCGGUGCCGGGAACGAAUGACGGUCAUGCGCCAGAAGGUGCUCAGACAA [theeternabot_exclusion_KL_FMN_B_23]  180 nM
14. ACCUACCAUUAGUGAUGUUAAUGGACGGAAGGAGCGCAGAUAUCUGCAGGUAGGUCGCCGAAGGCUAGACAUUGUCUAGCCAUUA [AK1.1 SS Arginine A]  178 nM
15. CUCGAGUGAUGUUCGAUUAUUUAUACAGAUACCAGUGAAUUUUAACACCCUUGGCAGCUGGUUGUAUCAUUGUUUUUUACAAAAG [JR_ExcTheophyA_Sub007]  167 nM
16. GCCAGAGCGCGAAGGAGCGCCCUGACAGGUUGCUGCCGUGGGCAGUGAUGUUGCUCAGUCCGGCAGGUAGGUCGCGUGCUCUGGC  165 nM
17. CCUAUCUCUUACGAUACCAGUCAAUGAUAUUUUAUCAAUGCCCUCACCGAGUGAUGUUCGGACCCUUGGCAGCGUAUGGGAUAGG [kjnjmullin]  162 nM
18. CGCUGGGCGAGUGAUGUUCGCUCACGUGAUACCAGUGCAAUCCAACACCCUUGGCAGCACGCGGGCAGUGAUGUUGUCCUUAGUG [Exclusion Theophylline A GF12]  149 nM
19. UUAACCAACAGCGAUACCAGCGUGGAGUGAUGUUCCGAGGAUCGGAGUGAUGUUCCGAAGCGCCCUUGGCAGCGCAGAAGCGCAA [Exclusion Theophylline B GF8]  148 nM
20. AUUAAUUUCAGAGGAUAUCGUUAUUUUUUUUAUUUUAUUCAUUUAUGCAGUGAUGUUGCUAUUAUUCGAGAAGGCUGAUUUAUAA [JR_ExcFMNB_Sub005]  126 nM
21. GUUACGCAUGGAAGGAGCGCGAAUUUAAUUAGUGAGUGAUGUUCACAUAAAAUGUAUAAUACGCAGGUAGGUCGCCAUGUGUAAC [whbob_Ex_Arginine_B_2th163]  84 nM
22. UGUCAUUGGUCGGCCGCCACUUCAAGGUCAAAGACCAAAGAGUGAUGUUCUAAGACGAAAGUCAGAAGGACCGGGACCGAUGACU [TrypBS 10 #SwitchBubble #K4Middle]  67.7 nM
23. CCCAAGGGCCUACCGGUAUUAUUAACGGAUACCAGAGGCGAAAGCCUCCCUUGGCAGCCGGGUGUAGUGAUGUUACUCCGGUAGU  64.7 nM
24. CGCCGGAAGGCGAGCGCUCCCACUCCGGAAGGAGCGCCCGGAAGGGCAGGUAGGUCGCCGGAGUGAUGUUCCGGUGGAGGGCUCG [#2 Exclusion - Arginine A Attempt #11 (Inspired by Omei)]  58 nM
25. AAGUGAUGUUGUAGUGAUGUUGUGAUGUUGCAGGAUAUAUAGUGAUGUAGAAGGGUAUGUGCAGUGUUCUUAUUUGAGUGUUGAU [zffdmullin]  33.9 nM
26. AGUUAUGUAUCAGGAUAUUAGUGAUGUUUGUUUUUGUUAGUGAUGUUGAUAUUUGUUUUAUGUAUUUAAGAAGGGAUUGAGAUGU [qsszmullin]  20.5 nM
